The target of data set [1] is GFP^2-Pflu-H1-RLuc2 fusion protein.
The target in data set [2] is GFP^2-Pflu-H3-RLuc2 fusion protein.
In data set [3] the target is GFP^2-Pflu-H4-RLuc2 fusion protein.
In data set [4] the target is GFP^2-Pflu-H2-RLuc2 fusion protein.
Data set [5] addresses GFP^2-plas1-RLuc2 fusion protein (BRET^2 plasmin sensor).
The target in data set [6] is GFP^2-Pflu3-RLuc2 fusion protein (Pflu sensor 3).

“And” between values parts separate entries of the source, which are not always exact repeats. Identical values can stand only once.

B1: bovine plasmin (Sigma) (protein)
chain: RIYLLECKTGNGQTYRGTTAETKSGVTCQKWSATSPHVPKFSPEKFPLAGLEENYCRNPDNDENGPWCYTTDPDKRYDYCDIPECEDKCMHCSGENYEGKIAKTMSGRDCQAWDSQSPHAHGYIPSKFPNKNLKMNYCRNPDGEPRPWCFTTDPQKRWEFCDIPRCTTPPPSSGPKYQCLKGTGKNYGGTVAVTESGHTCQRWSEQTPHKHNRTPENFPCKNLEENYCRNPNGEKAPWCYTTNSEVRWEYCTIPSCESSPLSTERMDVPVPPEQTPVPQDCYHGNGQSYRGTSSTTITGRKCQSWSSMTPHRHLKTPENYPNAGLTMNYCRNPDADKSPWCYTTDPRVRWEFCNLKKCSETPEQVPAAPQAPGVENPPEADCMIGTGKSYRGKKATTVAGVPCQEWAAQEPHQHSIFTPETNPQSGLERNYCRNPDGDVNGPWCYTMNPRKPFDYCDVPQCESSFDCGKPKVEPKKCSGRIVGGCVSKPHSWPWQVSLRRSSRHFCGGTLISPKWVLTAAHCLDNILALSFYKVILGAHNEKVREQSVQEIPVSRLFREPSQADIALLKLSRPAIITKEVIPACLPPPNYMVAARTECYITGWGETQGTFGEGLLKEAHLPVIENKVCNRNEYLDGRVKPTELCAGHLIGGTDSCQGDSGGPLVCFEKDKYILQGVTSWGLGCARPNKPGVYVRVSPYVPWIEETMRRN
As for B1, the Plasmin response (%), BRET^2, 1 nM Bovine plasmin in UHT milk is 4.9% in data set [1], 0.9% in data set [2], 6.3% in data set [3] and 7.9% in data set [4].

B2: human plasmin (Sigma) (protein)
chain: KVYLSECKTGNGKNYRGTMSKTKNGITCQKWSSTSPHRPRFSPATHPSEGLEENYCRNPDNDPQGPWCYTTDPEKRYDYCDILECEEECMHCSGENYDGKISKTMSGLECQAWDSQSPHAHGYIPSKFPNKNLKKNYCRNPDRELRPWCFTTDPNKRWELCDIPRCTTPPPSSGPTYQCLKGTGENYRGNVAVTVSGHTCQHWSAQTPHTHNRTPENFPCKNLDENYCRNPDGKRAPWCHTTNSQVRWEYCKIPSCDSSPVSTEQLAPTAPPELTPVVQDCYHGDGQSYRGTSSTTTTGKKCQSWSSMTPHRHQKTPENYPNAGLTMNYCRNPDADKGPWCFTTDPSVRWEYCNLKKCSGTEASVVAPPPVVLLPDVETPSEEDCMFGNGKGYRGKRATTVTGTPCQDWAAQEPHRHSIFTPETNPRAGLEKNYCRNPDGDVGGPWCYTTNPRKLYDYCDVPQCAAPSFDCGKPQVEPKKCPGRVVGGCVAHPHSWPWQVSLRTRFGMHFCGGTLISPEWVLTAAHCLEKSPRPSSYKVILGAHQEVNLEPHVQEIEVSRLFLEPTRKDIALLKLSSPAVITDKVIPACLPSPNYVVADRTECFITGWGETQGTFGAGLLKEAQLPVIENKVCNRYEFLNGRVQSTELCAGHLAGGTDSCQGDSGGPLVCFEKDKYILQGVTSWGLGCARPNKPGVYVRVSRFVTWIEGVMRNN
As to B2, in data set [5], the “Linear response, BRET^2, raw milk, one-step pre-treatment protocol” value was “between 1.6 nM (90%) and 128 nM (10%) plasmin”; the “Linear response, BRET^2, raw milk, one-step pre-treatment with low power sonication” value is “linear between 5.5 nM (90%) and 107 nM (10%)”. For the same protein, the Linear range (10%-90% BRET^2 response), 50% full fat UHT milk in data set [6] was 452 nM and 3620 nM.

(Values after patent US20190345535.)
